Data on two molecules can be found in publication PMC9980132 (bioRxiv, 2023).

The target of assay [1] is H2AK119Ub nucleosome (non-hydrolyzable, 187 bp Widom 601 DNA) (Xenopus | not stated) (UniProt P0CG48).
Assay [2] concerns the target T1, BAP1 (full-length human BAP1, residues 1-729) (human, UniProt Q92560 1-729).
T1 sequence: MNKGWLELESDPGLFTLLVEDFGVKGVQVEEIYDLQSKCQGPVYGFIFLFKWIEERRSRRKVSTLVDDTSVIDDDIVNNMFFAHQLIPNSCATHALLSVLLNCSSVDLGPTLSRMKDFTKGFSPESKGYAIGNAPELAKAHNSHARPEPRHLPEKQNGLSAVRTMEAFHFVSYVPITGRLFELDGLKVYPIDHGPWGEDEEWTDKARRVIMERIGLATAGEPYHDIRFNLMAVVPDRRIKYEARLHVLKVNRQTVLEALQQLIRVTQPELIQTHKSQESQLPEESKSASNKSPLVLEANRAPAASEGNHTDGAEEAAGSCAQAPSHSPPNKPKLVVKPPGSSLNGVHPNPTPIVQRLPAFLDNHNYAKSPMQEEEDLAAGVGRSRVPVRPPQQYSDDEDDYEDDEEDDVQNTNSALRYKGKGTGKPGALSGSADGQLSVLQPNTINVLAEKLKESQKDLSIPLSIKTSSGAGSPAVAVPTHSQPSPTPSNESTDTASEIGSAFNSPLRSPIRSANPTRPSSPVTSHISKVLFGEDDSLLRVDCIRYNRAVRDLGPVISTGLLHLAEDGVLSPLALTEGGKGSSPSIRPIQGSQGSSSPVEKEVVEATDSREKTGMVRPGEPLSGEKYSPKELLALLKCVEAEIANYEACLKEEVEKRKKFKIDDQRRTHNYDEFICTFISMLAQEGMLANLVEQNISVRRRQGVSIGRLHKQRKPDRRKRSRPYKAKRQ
Briefly: cryo-EM structure.

Chain of H2AK119Ub nucleosome (non-hydrolyzable, 187 bp Widom 601 DNA) (Xenopus | not stated) (P0CG48 whole entry, looked up, the tested form may be a part): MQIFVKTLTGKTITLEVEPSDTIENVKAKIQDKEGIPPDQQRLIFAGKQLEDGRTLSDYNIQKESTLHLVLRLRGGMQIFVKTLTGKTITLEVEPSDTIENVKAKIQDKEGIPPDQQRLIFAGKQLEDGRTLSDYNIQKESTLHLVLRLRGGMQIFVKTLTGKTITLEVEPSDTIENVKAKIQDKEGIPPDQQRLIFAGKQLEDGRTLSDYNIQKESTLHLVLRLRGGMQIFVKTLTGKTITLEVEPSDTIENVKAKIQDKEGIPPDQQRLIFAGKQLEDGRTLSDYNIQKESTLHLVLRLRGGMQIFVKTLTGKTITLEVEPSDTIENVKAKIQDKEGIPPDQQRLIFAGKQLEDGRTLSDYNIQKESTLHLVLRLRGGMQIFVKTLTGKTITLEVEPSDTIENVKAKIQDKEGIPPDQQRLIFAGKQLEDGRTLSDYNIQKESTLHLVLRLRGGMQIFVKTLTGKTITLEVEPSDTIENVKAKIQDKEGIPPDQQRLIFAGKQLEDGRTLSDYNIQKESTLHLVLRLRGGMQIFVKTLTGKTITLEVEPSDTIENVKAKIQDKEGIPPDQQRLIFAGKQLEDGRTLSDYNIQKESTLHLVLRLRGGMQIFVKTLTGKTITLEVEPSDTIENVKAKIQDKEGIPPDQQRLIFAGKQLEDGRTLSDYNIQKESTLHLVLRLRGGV

With “BAP1 R56A/R57A/R59A/R60A in complex with wild-type ASXL1 DEUBAD (from UniProt Q92560;Q8IXJ9)”, in assay [1], the kcat (turnover number) of deubiquitination of the H2AK119ub1 designer nucleosome is 0.015 s⁻¹.

B1: ASXL1 DEUBAD domain (residues 237-390) (domain or fragment)
chain: PATGQMKRNRGEEIDFETPGSILVNTNLRALINSRTFHALPSHFQQQLLFLLPEVDRQVGTDGLLRLSSSALNNEFFTHAAQSWRERLADGEFTHEMQVRIRQEMEKEKKVEQWKEKFFEDYYGQKLGLTKEESLQQNVGQEEAEIKSGLCVPG
For B1, in assay [2], the binding result is “binds”.
